Results from patent US20250262323, “PCSK9 ENDONUCLEASE VARIANTS, COMPOSITIONS, AND METHODS OF USE” (Novo Nordisk A/S, published 2025).

Legend:
[1] = molecular target: T1, PCSK9.H7.C11 I-OnuI HE variant (synthetic construct (Ophiostoma …)); assay: cell_activity; HEK 293T chromosomal mCherry reporter
T1 chain: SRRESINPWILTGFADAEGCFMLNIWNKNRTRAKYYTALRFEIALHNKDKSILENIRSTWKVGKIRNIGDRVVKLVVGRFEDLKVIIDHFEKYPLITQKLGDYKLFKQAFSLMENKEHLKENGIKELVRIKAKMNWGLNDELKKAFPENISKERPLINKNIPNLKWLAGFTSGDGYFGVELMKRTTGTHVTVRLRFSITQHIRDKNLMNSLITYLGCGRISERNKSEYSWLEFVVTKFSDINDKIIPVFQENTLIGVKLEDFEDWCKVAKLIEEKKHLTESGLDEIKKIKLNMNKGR
Description: The activity of reprogrammed I-OnuI HEs that target exon 4 of the PCSK9 gene was measured using a chromosomally integrated fluorescent reporter system (Certo et. al., 2011). Fully reprogrammed I-OnuI HEs that bind and cleave the PCSK9 target sequence were cloned into mammalian expression plasmids and then individually transfected into a HEK 293T […] cell line that contained the PCSK9 target sequence upstream of an out-of-frame gene encoding the fluorescent mCherry protein. Cleavage of the embedded target site by the HE and the accumulation of indels following DNA repair via the non-homologous end joining (NHEJ) pathway results in approximately one out of three repaired loci placing the fluorescent reporter gene back “in-frame”. The percentage of mCherry fluorescing HEK 293T cells is therefore used a readout of endonuclease activity at the chromosomally embedded target sequence. […] FIG. 3 (top panels).
A secondary I-OnuI variant library was next generated by performing random mutagenesis on the PCSK9.H7 HE variant (e.g., SEQ ID NO: 6). Display-based flow sorting was performed under more stringent cleavage conditions in an effort to isolate variants with improved catalytic efficiency. FIG. 3 (bottom panel). This process led to variant PCSK9.H7.C11 (SEQ ID NO: 7) with an approximately 2-fold higher rate of mCherry expressing cells.

[2] = molecular target: T1, PCSK9.H7.C11 I-OnuI HE variant; assay: flow; sub-nanomolar affinity; yeast surface display substrate titration; exact value only in figure; details: tags: yeast surface display

B1: PCSK9 exon 4 HE target site (dsDNA)
DNA 1: ATCTAAGAGATACACCTCCACC
DNA 2: GGTGGAGGTGTATCTCTTAGAT
Q: With B1 as the binder, how does the activity [1] read?
A: The activity was ~2 fold vs PCSK9.H7.

Q: And the Kd [2]?
A: Its Kd is < 1 nM.
